Data reported in patent US20220003777A1.

Target: C1 esterase inhibitor, human plasma-derived (human) (UniProt P05155)
Assay: Western blot of serially diluted C11NH/BSA probed with 20 µg/mL StcE E447D

Sequence of C1 esterase inhibitor, human plasma-derived (human) (P05155 23-500 limits assumed): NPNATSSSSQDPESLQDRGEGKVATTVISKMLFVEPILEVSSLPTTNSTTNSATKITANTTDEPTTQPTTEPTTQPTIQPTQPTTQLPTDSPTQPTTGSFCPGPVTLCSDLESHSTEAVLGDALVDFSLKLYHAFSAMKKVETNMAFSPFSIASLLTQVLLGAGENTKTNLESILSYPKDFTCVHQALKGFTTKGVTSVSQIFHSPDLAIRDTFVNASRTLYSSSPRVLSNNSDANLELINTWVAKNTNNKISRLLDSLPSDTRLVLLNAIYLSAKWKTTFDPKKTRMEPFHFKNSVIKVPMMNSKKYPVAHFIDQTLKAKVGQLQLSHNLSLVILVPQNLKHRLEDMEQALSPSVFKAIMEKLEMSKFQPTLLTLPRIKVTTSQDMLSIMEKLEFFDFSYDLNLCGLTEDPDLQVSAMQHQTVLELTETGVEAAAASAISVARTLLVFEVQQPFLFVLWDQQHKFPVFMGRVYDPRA

“StcE E447D, catalytically inactive point mutant of StcE, N-terminal His-tagged (from UniProt O82882 36-898) (enzyme; other documents disagree on this pair)” was tested, and the lowest amount of C11NH with visible signal was 0.03 µg.
